According to article PMC9164268:
One block for each binder: values may come before it.

Key:
[1] = target: T1, surfactant protein D (human), P35247; assay: SEC; Sephadex G-200 column (1.5 x 12 cm, 20 mL), 0.05 M HNaPO4, 0.15 M NaCl, pH 7; 1.5 mg/mL protein loaded, 12 x 1 mL fractions, isocratic; protein in fractions by Bradford assay and slot blot with anti-SPD and anti-MAA; settings: remark: other sources report otherwise
T1 chain: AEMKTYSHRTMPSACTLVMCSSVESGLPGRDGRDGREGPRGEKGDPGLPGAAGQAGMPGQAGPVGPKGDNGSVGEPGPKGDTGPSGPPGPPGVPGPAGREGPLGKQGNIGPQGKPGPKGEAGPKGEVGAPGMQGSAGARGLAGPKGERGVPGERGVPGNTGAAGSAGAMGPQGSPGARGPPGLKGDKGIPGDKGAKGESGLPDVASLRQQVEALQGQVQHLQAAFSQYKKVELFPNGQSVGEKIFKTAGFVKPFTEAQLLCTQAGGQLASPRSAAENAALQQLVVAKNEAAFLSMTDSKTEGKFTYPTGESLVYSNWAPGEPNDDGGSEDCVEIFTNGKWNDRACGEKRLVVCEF

[2] = target: T2, MAA-adducted surfactant protein D (human), P35247; assay: as above; settings: remark: other sources report otherwise
T2 chain: T1 chain

stoichiometry N [1]: 3
B1: surfactant protein D, P35247 21-375 (natural protein)
chain: T1 chain

stoichiometry N [2]: 3
B2: MAA-adducted surfactant protein D, P35247 21-375 (natural protein)
chain: T1 chain
modifications: here or on the partner: malondialdehyde-acetaldehyde (MAA) adducts; MAA adduction occurs primarily on lysine residues; positions not given; malondialdehyde-acetaldehyde (MAA) adducts; MAA adduction occurs primarily on lysine residues; positions not given
